Our source for the stoichiometry N values is article PMC7677505.

In assay [1] the target is Endogenous BAFF (human (endogenous in serum, CSF, cord blood)). Kind of assay: SEC; cord blood sera in Hepes pH 8.2, 30 mM NaCl, 10 ug/ml BSA; fractions lyophilized; ELISA at pH 5.5 and BAFFR:Fas reporter cells with antibody 2.81.
For assay [2] the target is unchanged. The experiment in a line: SEC; endogenous BAFF affinity-purified on atacicept from CSF or from serum of a CVID patient, SEC at pH 8.2; ELISA with capture at pH 5.5 and BAFFR:Fas reporter cells.
Assay [3] has the same target. Kind of assay: SEC; 8-fold concentrated pool of CSF of multiple sclerosis patients at pH 8.2, 30 mM NaCl; also after depletion on anti-APRIL mAb 104; ELISA with capture at pH 5.5 and BAFFR:Fas reporter cells.
The target is the same in assay [4]. The experiment in a line: SEC; BAFFR-deficient human serum on Superdex S200 Increase in Hepes buffer pH 8.2; BAFF activity of fractions read on BCMA:Fas reporter cells; fractions 15-17 pooled, concentrated and run again.
The target is the same in assay [5]. The experiment in a line: SEC; adult human sera (normal, CVID, BAFFR-deficient, BTK-deficient) in Hepes pH 8.2, 30 mM NaCl, 10 ug/ml BSA; fractions lyophilized; ELISA at pH 5.5 and BAFFR:Fas reporter cells with antibody 2.81.

Regarding Endogenous BAFF (ligand), the stoichiometry N worked out at 3 in assay [1]; 3 in assay [2]; 3 in assay [3]; 2.7 in assay [4]; 3 in assay [5].
